Test results from PMC8415317 (Genes & Development, 2021).
“Also recorded” adds a separate entry of the source. Marks after values point to notes of the source that are not given here. Values belong to the molecule of their own block, whether it stands above or below them.

Columns and labels:
[1] = SEC-MALS, molecular mass and oligomeric state; assay type: physicochemical, C. elegans
ERH-2 [2] = assay type: binding, C. elegans
PID-3/TOFU-6 interaction = assay type: binding, C. elegans
TOFU-6^RRM = experiment: SEC assay, TOFU-6^RRM with PID-3^RRM; assay type: binding, C. elegans; conditions: 1:1.5 molar ratio, Superdex 200 Increase 10/300
[3] = tested on: Cy5-labeled 16-mer oligo(U) RNA; experiment: Fluorescence anisotropy RNA binding, Cy5-U16; conditions: 100 nM Cy5-U16 RNA, pH 7.5, 15°C
[4] = tested on: FITC-labeled 28-mer RNA based on the 21U-3372 precursor; experiment: Fluorescence anisotropy RNA binding, FITC-28-mer pre-piRNA; parameters: species or system C. elegans; conditions: 100 nM FITC-28-mer RNA, pH 7.5, 15°C
ERH-2 [5] = molecular target: T1, ERH-2 (Caenorhabditis elegans, UniProt Q20057); experiment: Isothermal titration calorimetry, binding to ERH-2; parameters: species or system C. elegans; conditions: ITC, 20 μM ERH-2 in cell, 431 μM TOST-1^FL in syringe; N fixed at 1, not fitted
T1 sequence (Q20057 1-113): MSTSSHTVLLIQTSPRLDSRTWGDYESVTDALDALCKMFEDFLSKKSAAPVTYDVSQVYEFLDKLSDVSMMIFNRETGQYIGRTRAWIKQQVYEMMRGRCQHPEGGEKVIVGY

ERH-2:PID-3^pep 1:2 = molecular target: T2, ERH-2:PID-3^pep 1:2 (Caenorhabditis elegans, UniProt O76616+Q20057); experiment: Isothermal titration calorimetry, binding to ERH-2:PID-3^pep 1:2; parameters: species or system C. elegans; conditions: ITC, 25°C, 50 mM Tris, 250 mM NaCl, 1 mM TCEP, pH 7.50; 20 μM ERH-2:40 μM PID-3^pep in cell, 431 μM TOST-1^FL in syringe; average and SD of two or three measurements
T2 sequence (Q20057 1-113): T1 sequence (Q20057 1-113)
T2 sequence (O76616 171-203 partner limits assumed): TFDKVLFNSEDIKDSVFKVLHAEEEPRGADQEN

ERH-2 [6] = molecular target: T1, ERH-2; experiment: NMR-monitored titration of 15N-labeled ERH-2; assay type: binding, C. elegans; conditions: TOST-1^FL added to 15N-labeled ERH-2, 25°C
ERH-2 [7] = experiment: Streptavidin pull-down, TOST-1/PID-1 mVenus-Strep bait with ERH-2; assay type: binding, C. elegans; conditions: TOST-1 or PID-1 mVenus-Strep bait 10-20 μM, prey 1.2-fold molar excess, 4°C
ERH-1 = molecular target: T3, ERH-1 (Caenorhabditis elegans, UniProt Q22640); experiment: Streptavidin pull-down, TOST-1/PID-1 mVenus-Strep bait with ERH-1; assay type: binding, C. elegans; conditions: TOST-1 or PID-1 mVenus-Strep bait 10-20 μM, prey 1.2-fold molar excess, 4°C
T3 sequence (Q22640 1-103): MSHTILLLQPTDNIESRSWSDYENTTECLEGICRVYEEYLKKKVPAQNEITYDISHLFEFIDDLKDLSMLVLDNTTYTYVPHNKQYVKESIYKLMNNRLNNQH

ERH-2/PID-3 = experiment: SEC assay, ERH-2/TOST-1/PID-3 complex; assay type: binding, C. elegans; conditions: full-length ERH-2, TOST-1 and PID-3, 1:1 ratio
[8] = tested on: ERH-2 alone, ERH-2/PID-3 subcomplex, full PETISCO; experiment: Streptavidin pull-down, TOST-1-mVenus-Strep with ERH-2, ERH-2/PID-3 or PETISCO; assay type: binding, C. elegans; conditions: TOST-1-mVenus-Strep as bait

binding to ERH-2 in GST pull-down (ERH-2 [2]): failed to bind ERH-2
relative RNA binding affinity [3]: lowest binding affinity
relative RNA binding affinity [4]: lowest binding affinity
B1: PID-3^RRM: PID-3 RRM domain, residues 196–274 (protein)
chain: PRGADQENMLKISGYPGMLNTFGIAQLLTPYRVNGITITGAQSAVVALENKFQVYQAVQDFNGKKLDRNHKLQVSSLVV
modifications: left off: His6, N-terminal, state not stated | GST, N-terminal, state not stated
oligomeric state [1]: homodimers
PID-3/TOFU-6 interaction in pull-down (PID-3/TOFU-6 interaction): the RRM domains of PID-3 and TOFU-6 mediate the interaction between the two proteins
PID-3^RRM/TOFU-6^RRM interaction by SEC (TOFU-6^RRM): This is supported by SEC

N (stoichiometry) (ERH-2 [5]): 1^c
Kd (ERH-2:PID-3^pep 1:2): 15 ± 2 µM
amide CSPs of full-length protein vs peptide (ERH-2 [6]): very similar amide CSPs
B2: TOST-1^FL: full-length TOST-1 (protein)
chain: MTTAIQYQVIPLADREHSNKVASILENKYKTATNKRITLNERFGVLEKGYTIQATEPETVKNDSDVFFVVHDRNLNSKKEFVENYLAKNPIVNSPEKVFEEEDKENAPTKKAVLKPSSTDEKKLTSSDIYIQEITRSILQSV
modifications: left off: His6, N-terminal, state not stated | Trx, N-terminal, state not stated
binding to ERH-2 in streptavidin pull-down (ERH-2 [7]): Both PID-1 and TOST-1 bound ERH-2; also recorded: more efficient bait than PID-1
binding to ERH-1 in streptavidin pull-down (ERH-1): interacted with ERH-1; also recorded: more efficient bait than PID-1
trimeric complex formation by SEC (ERH-2/PID-3): elutes at smaller elution volumes than the dimeric subcomplexes
pull-down of ERH-2 alone, with PID-3 or within PETISCO [8]: pulled down ERH-2 in all conditions; also recorded: more ERH-2 is pulled down when ERH-2 is in complex with PID-3 or as part of PETISCO
